Consider two molecules from paper PMC9472132 (Journal for Immunotherapy of Cancer, 2022).

Like-named read-outs stand apart in the source and are kept apart here.

Assay [1] has as its target T1, human CD27 on primary peripheral blood T cells (Homo sapiens (Human)., UniProt P26842). As to the kind of experiment: flow cytometry on cells.
The target in assay [2] is T2, rhesus monkey CD27 on primary peripheral blood T cells (Macaca mulatta, UniProt F7BYS2). The assay can be described thus: flow cytometry on cells. For orientation: Flow cytometry measures light scatter and fluorescence of single cells or particles in a stream.
The target of assay [3] is T1, human CD27 on primary peripheral blood …. The assay can be described thus: flow cytometry on cells. The source holds these as a separate data set.
Assay [4] has as its target T2, rhesus monkey CD27 on primary …. As to the kind of experiment: flow cytometry on cells. The source holds these as a separate data set.
In assay [5] the target is T3, human CD27 expressed on CHO-K1 cells (human, UniProt P26842). As to the kind of experiment: flow cytometry on cells.
For assay [6], the target named is T3, human CD27 expressed on CHO-K1 cells. The assay can be described thus: ELISA.
For assay [7], the target named is rhesus monkey CD27 expressed on CHO-K1 cells (Macaca mulatta, UniProt F7BYS2). As to the kind of experiment: ELISA. (In general: An ELISA detects its analyte on a solid surface through an enzyme-linked reagent.)
Assay [8] concerns the target rhesus monkey CD27-IgG fusion protein (Macaca mulatta, UniProt F7BYS2). The assay can be described thus: SPR.
For assay [9], the target named is human CD27-IgG fusion protein (Homo sapiens (Human)., UniProt P26842). As to the kind of experiment: SPR. (In general: In SPR one partner is held on a chip, and binding of the other changes the refractive index at the surface.)

B1: varlilumab analog (anti-CD27 fully human IgG1 antibody, made in-house from published patented sequences) (antibody, V domains shown)
VH: QVQLVESGGGVVQPGRSLRLSCAASGFTFSSYDMHWVRQAPGKGLEWVAVIWYDGSNKYYADSVKGRFTISRDNSKNTLYLQMNSLRAEDTAVYYCARGSGNWGFFDYWGQGTLVTVSS
VL: DIQMTQSPSSLSASVGDRVTITCRASQGISRWLAWYQQKPEKAPKSLIYAASSLQSGVPSRFSGSGSGTDFTLTISSLQPEDFATYYCQQYNTYPRTFGQGTKVEIK
Broadly, the EC50 is the concentration giving half of the maximal effect. As a reminder, the IC50 is the point on the concentration scale where inhibition reaches its midpoint. One may read the Kd as the equilibrium constant for the complex coming apart. The term koff denotes the first-order rate constant of dissociation. What is called kon is a measure of how fast the partners come together. Regarding B1, the 50% effective concentration (EC50) in [1] turned out to be 1.54 nM; in [2], 1.58 nM; in assay [3], 1.3 nM; in [4] it was 1.92 nM; in assay [6], 0.325 nM; in assay [7] it was 0.193 nM. It took 2.85 nM to reach half-maximal inhibition in assay [5] (IC50). For the same molecule, the dissociation constant (Kd) in [8] was found to be 0.97 nM; in [9], 0.63 nM. Besides, the figures for the koff in assay [8] and in assay [9] were 0.00022 s⁻¹ and 0.00012 s⁻¹, respectively. For the same molecule, the results for the on-rate constant (kon) in assay [8] and in [9] were 230000 M⁻¹ s⁻¹ and 190000 M⁻¹ s⁻¹, respectively.

B2: MK-5890 (humanized anti-human CD27 agonist antibody, hIgG1) (antibody, V domains shown)
VH: EIQLVQSGAEVKKPGASVKVSCKASGYTFTNYGMNWVKQAPGQGLKWMGWINTNTGEPTYAEEFKGRFTFTLDTSISTAYMELSSLRSEDTAVYYCAREGDAMDYWGQGTTVTVSS
VL: EIVLTQSPATLSLSPGERATLSCSASSSVSYMHWYQQKPGQAPKRWIYDTSKLASGVPARFSGSGSGTDYSLTISSLEPEDFAVYYCQQWNSYPFTFGQGTKLEIK
With B2, the EC50 came out at 0.32 nM in assay [1]; 0.17 nM in [2]; 0.3 nM in [3]; 0.22 nM in assay [4]; 0.072 nM in assay [6]; 0.054 nM in assay [7]. In assay [5], this molecule showed a half-maximal inhibitory concentration (IC50) of 0.24 nM. The Kd in [8] came out at 4.3 nM; in [9], 5.1 nM. For the same molecule, the koff in assay [8] was 0.001 s⁻¹; in [9], 0.0011 s⁻¹. For the same molecule, the kon amounted to 230000 M⁻¹ s⁻¹ in assay [8] and 220000 M⁻¹ s⁻¹ in assay [9].
